Data published in article PMC4161306, “Regulation of Arabidopsis Flowering by the Histone Mark Readers MRG1/2 via Interaction with CONSTANS to Modulate FT Expression” (PLoS Genetics, 2014).
Where no end group is shown, it is not given here. Me3 = trimethyl-lysine; Me2 = dimethyl-lysine

Key:
[1] = biological target: T1, MRG2 chromodomain (residues 41-123) (Arabidopsis thaliana, UniProt Q4V3E2 41-123); assay: ITC; 25 C, MicroCal iTC200; 50 mM Tris pH 8.0, 100 mM NaCl; 0.2-0.4 mM protein in the cell, 2-4 mM peptide injected in 2 ul aliquots (20 injections); one-site model; details: both partners purified
T1 construct: Arabidopsis thaliana MRG2 chromodomain, residues 41-123; Construct of the ITC; source: cloned into pET28-SMT3, purified, tag removed
T1 sequence (looked up): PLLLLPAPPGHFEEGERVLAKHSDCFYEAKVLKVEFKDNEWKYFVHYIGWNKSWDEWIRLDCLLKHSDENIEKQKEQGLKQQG

GST-fused CONSTANS (CO) = biological target: T2, GST-fused CONSTANS (CO) (Arabidopsis thaliana, UniProt Q39057 1-373); assay: pull-down; GST-fused CO (or GST alone) with His-tagged MRG2, MRG2C or MRG2N, purified from E. coli; protocol of ref. 51; details: both partners purified
T2 construct: Arabidopsis transcription factor CONSTANS (CO); CO cDNA amplified with primers CO-1/CO-2; also called GST-CO; source: E. coli, pGEX-4T-1, purified
T2 sequence (looked up): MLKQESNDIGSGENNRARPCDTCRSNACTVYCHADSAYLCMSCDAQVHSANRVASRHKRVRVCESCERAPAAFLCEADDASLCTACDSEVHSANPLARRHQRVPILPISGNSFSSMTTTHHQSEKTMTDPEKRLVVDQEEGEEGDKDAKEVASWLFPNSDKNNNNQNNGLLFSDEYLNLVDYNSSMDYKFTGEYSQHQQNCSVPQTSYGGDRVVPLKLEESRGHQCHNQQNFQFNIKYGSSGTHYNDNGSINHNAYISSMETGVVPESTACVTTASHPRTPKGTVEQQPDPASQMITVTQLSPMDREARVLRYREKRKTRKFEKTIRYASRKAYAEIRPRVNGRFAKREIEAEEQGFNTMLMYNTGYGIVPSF

Binder	Kd [1]	binding result (GST-fused CONSTANS (CO))
ARTK(Me2)QTARK [H3K4me2 peptide (residues 1-9)]	2.4 mM	–
KQTARK(Me3)STGG [H3K9me3 peptide (residues 4-13)]	1.2 mM	–
KAARK(Me3)SAPA [H3K27me3 peptide (residues 23-31)]	2.5 mM	–
His-tagged MRG2 (natural protein, Arabidopsis thaliana, UniProt Q4V3E2 1-327, looked up, Arabidopsis MRG2 cDNA amplified with primers MRG2-1/MRG2-10; MRG2-1 is the forward primer of MRG2N (cDNA from nucleotide 1) and MRG2-10 the reverse primer of MRG2C (cDNA to nucleotide 984); also called MRG2 tagged with multiple His residues; His-MRG2; source: E. coli, pET-30a, purified (His tag)) MGSPNAAAETDLTTDDFIGDTRRDSGSDTETNTDCDGEDLPLLLLPAPPGHFEEGERVLAKHSDCFYEAKVLKVEFKDNEWKYFVHYIGWNKSWDEWIRLDCLLKHSDENIEKQKEQGLKQQGIKSAMAWKVSKMKPRSPNVARGRKRKQDSVDTEKNVLPSDNLLSFNIPPALRKQLLDDFEFVTQMQKLVQLPRSPNVDGILKKYIDSQMKKHGRVTDSLEEILKGLRCYFDKALPVMLLYNNERKQYEESVSGGVSPSTVYGAEHLLRLFVKLPELLVHVNMAEETLKELQDNFVDILRFLRKNQSVLFVSTYKAVEEMEKKEG	–	binds
His-tagged MRG2C (MRG domain of MRG2) (domain or fragment, Arabidopsis thaliana, UniProt Q4V3E2 148-327, looked up, Arabidopsis MRG2; MRG2C is cDNA 442-984, which are nucleotides, i.e. from residue 148 to the C-terminus; holds the MRG domain; source: E. coli, pET-30a, purified (His tag)) RKQDSVDTEKNVLPSDNLLSFNIPPALRKQLLDDFEFVTQMQKLVQLPRSPNVDGILKKYIDSQMKKHGRVTDSLEEILKGLRCYFDKALPVMLLYNNERKQYEESVSGGVSPSTVYGAEHLLRLFVKLPELLVHVNMAEETLKELQDNFVDILRFLRKNQSVLFVSTYKAVEEMEKKEG	–	binds
